The target in experiment [1] is T1, mouse CD137 (mouse, UniProt P20334 24-187, limits assumed).
T1 sequence (looked up): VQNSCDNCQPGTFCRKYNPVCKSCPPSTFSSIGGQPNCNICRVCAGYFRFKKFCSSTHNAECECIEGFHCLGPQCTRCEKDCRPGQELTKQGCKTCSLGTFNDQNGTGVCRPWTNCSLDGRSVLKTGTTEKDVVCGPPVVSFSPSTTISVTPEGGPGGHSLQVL
The experiment can be described thus: cell-based or functional assay.

The target of experiment [2] is cynomolgus monkey CD137 (cynomolgus monkey, UniProt A9YYE7 24-254). The experiment can be described thus: cell-based or functional assay.
cynomolgus monkey CD137, sequence (A9YYE7 entry or part of it): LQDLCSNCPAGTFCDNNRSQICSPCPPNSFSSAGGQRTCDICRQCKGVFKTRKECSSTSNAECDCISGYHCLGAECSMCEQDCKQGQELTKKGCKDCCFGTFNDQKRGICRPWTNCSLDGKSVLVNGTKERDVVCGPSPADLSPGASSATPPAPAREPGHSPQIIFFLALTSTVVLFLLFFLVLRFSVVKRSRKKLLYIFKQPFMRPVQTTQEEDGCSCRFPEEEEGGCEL
The target in experiment [3] is T2, rat CD137 (rat).
T2 construct: It was recombinantly expressed in reporter cells for the NFkB assay; also called rodent CD137 receptors (rat)
In words: not described; the reference is not named in the sentence (monkey and human CD137 in the sentences before).

For experiment [4], the target named is T1, mouse CD137. The experiment is described as above.
Experiment [5] has as its target T3, human CD137 (human, UniProt Q07011 24-186).
T3 construct: also called CD137 receptor; 4-1BB
The experiment can be described thus: surface plasmon resonance (SPR); format not described. On the technique in general: SPR reads the build-up and loss of mass on a sensor chip optically.

The results in this text go back to patent US20230133118A1 (ADAGENE, published 2023).

A word on the Kd: it is the free concentration of one partner at which half of the binding sites on the other are occupied at equilibrium, for simple one-to-one binding.

T3 sequence (Q07011 24-186 limits assumed): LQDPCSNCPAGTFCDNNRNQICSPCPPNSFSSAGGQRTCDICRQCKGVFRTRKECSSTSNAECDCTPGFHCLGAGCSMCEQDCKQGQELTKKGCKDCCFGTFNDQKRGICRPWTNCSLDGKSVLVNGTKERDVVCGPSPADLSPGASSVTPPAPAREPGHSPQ

B1: ADG106 (antibody, human IgG4 S228P, kappa, V domains shown)
VH: EVQLVESGGGLVQPGGSLRLSCAASGFSLSTGGVGVGWIRQAPGKGLEWLALIDWADDKYYSPSLKSRLTISRDNSKNTLYLQLNSLRAEDTAVYYCARGGSDTVIGDWFAYWGQGTLVTVSS
VL: DIQLTQSPSSLSASVGDRVTITCRASQSIGSYLAWYQQKPGKAPKLLIYDASNLETGVPSRFSGSGSGTDFTLTISSLQPEDFATYYCQQGYYLWTFGQGTKVEIKR
notes: also called anti-CD137 antibody ADG106; fully human agonistic anti-CD137 monoclonal IgG4 antibody
Regarding B1, in experiment [1], the “EC50 (read off the curve) (NFkB reporter, 293T cells expressing mouse CD137)” value is about 0.4 µg/mL. In addition, the “EC50 (read off the curve) (NFkB reporter, 293T cells expressing monkey CD137)” value in experiment [2] is about 0.3 µg/mL. The fold lower affinity in experiment [3] and in experiment [4] was over 100 fold each time. Further, in experiment [5], the affinity, expressed as Kd, was 3.7 nM.
